Reference: patent US20090253131A1, “HYBRID FUSION REPORTER AND USES THEREOF” (Promega Corporation, priority 2007, published 2009)
Read-outs that look alike come from different tables or passages of the source. Blank lines part the entries; values can stand above or below the substance they belong to.

Key:
Assay in all cases: cell-based or functional assay
[1] = molecular target: FKBP-hRL (112-311) (Renilla) (UniProt P62942)
[2] = molecular target: hRL (112-311)-FKBP (Renilla) (UniProt P27652)
[3] = molecular target: hRL (112-311)-FKBP (Renilla) (UniProt P27652); remark: listed apart in the source
[4] = molecular target: Rluc8 (92-311)-FKBP (Renilla) (UniProt P27652)
[5] = molecular target: Rluc8 (112-311)-FKBP (Renilla) (UniProt P27652)
[6] = molecular target: hRL (92-311)-FKBP (Renilla) (UniProt P27652)
[7] = molecular target: hRL (92-311)-FKBP (Renilla) (UniProt P27652); remark: listed apart in the source
[8] = molecular target: FKBP-hRL (112-311) (Renilla) (UniProt P62942); remark: listed apart in the source
[9] = molecular target: FKBP-hRL (92-311) (Renilla) (UniProt P62942)
[10] = molecular target: FKBP-hRL (92-311) (Renilla) (UniProt P62942); remark: listed apart in the source

Chain of FKBP-hRL (112-311) (Renilla) (P62942 other isoform, or with tags, fused parts or gaps): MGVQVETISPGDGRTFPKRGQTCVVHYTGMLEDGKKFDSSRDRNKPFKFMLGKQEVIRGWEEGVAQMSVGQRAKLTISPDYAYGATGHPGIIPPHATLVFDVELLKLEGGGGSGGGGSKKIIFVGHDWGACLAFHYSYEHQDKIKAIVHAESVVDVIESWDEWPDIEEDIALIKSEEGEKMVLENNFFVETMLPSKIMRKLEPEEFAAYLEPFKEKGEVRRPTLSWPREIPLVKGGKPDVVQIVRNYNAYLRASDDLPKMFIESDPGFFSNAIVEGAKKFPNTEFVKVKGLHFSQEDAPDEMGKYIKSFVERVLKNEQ
Chain of hRL (1-111)-FRB (P27652 other isoform, or with tags, fused parts or gaps): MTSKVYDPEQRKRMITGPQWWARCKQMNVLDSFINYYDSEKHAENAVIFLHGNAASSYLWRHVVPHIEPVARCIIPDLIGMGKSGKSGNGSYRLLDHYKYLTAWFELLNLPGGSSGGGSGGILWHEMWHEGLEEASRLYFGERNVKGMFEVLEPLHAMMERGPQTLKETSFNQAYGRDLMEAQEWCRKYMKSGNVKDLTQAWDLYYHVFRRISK
Chain of hRL (112-311)-FKBP (Renilla) (P27652 other isoform, or with tags, fused parts or gaps): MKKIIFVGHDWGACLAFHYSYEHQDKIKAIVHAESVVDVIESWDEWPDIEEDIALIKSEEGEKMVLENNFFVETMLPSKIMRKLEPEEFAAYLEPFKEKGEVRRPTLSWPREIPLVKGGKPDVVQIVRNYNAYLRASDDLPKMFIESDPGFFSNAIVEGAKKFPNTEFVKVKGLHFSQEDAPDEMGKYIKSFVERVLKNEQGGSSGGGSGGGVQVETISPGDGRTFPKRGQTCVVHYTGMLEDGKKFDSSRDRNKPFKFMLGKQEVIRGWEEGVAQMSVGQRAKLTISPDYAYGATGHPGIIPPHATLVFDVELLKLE
Chain of FKBP-hRL (92-311) (Renilla) (P62942 other isoform, or with tags, fused parts or gaps): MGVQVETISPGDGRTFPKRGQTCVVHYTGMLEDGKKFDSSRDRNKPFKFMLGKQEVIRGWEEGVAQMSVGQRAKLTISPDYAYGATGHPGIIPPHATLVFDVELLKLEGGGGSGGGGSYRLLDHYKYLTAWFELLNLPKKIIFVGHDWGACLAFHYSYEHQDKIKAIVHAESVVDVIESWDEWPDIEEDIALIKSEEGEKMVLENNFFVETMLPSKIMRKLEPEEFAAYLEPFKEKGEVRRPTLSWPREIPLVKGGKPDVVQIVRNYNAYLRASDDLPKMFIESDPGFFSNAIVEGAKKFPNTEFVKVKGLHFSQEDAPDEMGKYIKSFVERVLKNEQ
Chain of hRL (92-311)-FKBP (Renilla) (P27652 other isoform, or with tags, fused parts or gaps): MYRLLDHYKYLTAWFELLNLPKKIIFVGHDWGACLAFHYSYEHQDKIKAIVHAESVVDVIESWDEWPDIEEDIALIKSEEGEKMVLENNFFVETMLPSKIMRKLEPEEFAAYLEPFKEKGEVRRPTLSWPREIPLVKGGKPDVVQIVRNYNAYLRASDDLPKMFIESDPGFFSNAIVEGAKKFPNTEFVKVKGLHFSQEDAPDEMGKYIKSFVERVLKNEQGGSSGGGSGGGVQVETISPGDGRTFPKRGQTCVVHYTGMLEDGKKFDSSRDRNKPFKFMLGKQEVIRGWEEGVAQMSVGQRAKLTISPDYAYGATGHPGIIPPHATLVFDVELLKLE
Chain of hRL (1-91)-FRB (P27652 other isoform, or with tags, fused parts or gaps): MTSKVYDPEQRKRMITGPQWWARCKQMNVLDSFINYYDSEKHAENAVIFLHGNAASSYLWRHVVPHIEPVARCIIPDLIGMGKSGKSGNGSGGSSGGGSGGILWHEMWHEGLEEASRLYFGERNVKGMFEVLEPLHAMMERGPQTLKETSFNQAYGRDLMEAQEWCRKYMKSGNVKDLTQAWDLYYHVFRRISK
Chain of Rluc8 (92-311)-FKBP (Renilla) (P27652 other isoform, or with tags, fused parts or gaps): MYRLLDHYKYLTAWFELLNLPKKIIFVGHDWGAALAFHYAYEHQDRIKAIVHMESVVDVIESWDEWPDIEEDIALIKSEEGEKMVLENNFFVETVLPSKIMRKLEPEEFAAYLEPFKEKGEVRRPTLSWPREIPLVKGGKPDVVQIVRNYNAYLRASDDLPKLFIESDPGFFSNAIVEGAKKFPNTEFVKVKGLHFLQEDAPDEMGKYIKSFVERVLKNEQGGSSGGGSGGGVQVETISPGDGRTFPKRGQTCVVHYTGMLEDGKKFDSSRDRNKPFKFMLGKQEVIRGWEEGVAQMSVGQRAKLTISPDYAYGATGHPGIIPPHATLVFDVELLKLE
Chain of Rluc8 (1-91)-FRB (P27652 other isoform, or with tags, fused parts or gaps): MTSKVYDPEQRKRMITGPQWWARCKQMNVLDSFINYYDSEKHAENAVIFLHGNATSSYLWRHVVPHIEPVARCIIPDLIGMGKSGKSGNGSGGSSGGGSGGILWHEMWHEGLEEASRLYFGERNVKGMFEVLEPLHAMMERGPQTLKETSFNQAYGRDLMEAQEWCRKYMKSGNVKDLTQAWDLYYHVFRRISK
Chain of Rluc8 (1-111)-FRB (P27652 other isoform, or with tags, fused parts or gaps): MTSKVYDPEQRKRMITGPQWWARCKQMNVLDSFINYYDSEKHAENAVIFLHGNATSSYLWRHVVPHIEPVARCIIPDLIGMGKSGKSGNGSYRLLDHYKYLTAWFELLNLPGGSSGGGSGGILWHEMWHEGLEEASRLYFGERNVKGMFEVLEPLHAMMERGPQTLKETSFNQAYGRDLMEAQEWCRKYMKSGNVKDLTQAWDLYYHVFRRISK
Chain of Rluc8 (112-311)-FKBP (Renilla) (P27652 other isoform, or with tags, fused parts or gaps): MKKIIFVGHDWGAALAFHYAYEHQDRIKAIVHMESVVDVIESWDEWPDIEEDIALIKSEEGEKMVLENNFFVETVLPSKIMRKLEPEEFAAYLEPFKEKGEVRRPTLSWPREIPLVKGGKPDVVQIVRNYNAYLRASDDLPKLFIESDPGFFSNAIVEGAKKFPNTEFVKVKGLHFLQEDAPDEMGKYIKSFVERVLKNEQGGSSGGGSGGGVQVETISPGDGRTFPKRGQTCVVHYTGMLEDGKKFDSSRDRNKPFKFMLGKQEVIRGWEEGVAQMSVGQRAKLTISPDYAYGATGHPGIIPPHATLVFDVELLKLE

Substance: FRB-hRL (1-111) (from UniProt P42345 2021-2113; P27652 1-111)
Renilla luciferase activity, +rapamycin against no rapamycin [1]: 5.3 fold | Renilla luciferase activity, +rapamycin against no rapamycin [2]: 46 fold | Renilla luciferase activity, +rapamycin against no rapamycin [3]: 51 fold

Substance: Rluc8 (1-111)-FRB (from UniProt P27652 1-111; P42345 2021-2113)
Renilla luciferase activity, +rapamycin against no rapamycin [5]: 17 fold

Second part, the substance after the results:

Renilla luciferase activity, +rapamycin against no rapamycin [4]: 4 fold
Substance: Rluc8 (1-91)-FRB (from UniProt P27652 1-91; P42345 2021-2113)

Renilla luciferase activity, +rapamycin against no rapamycin [6]: 134 fold | Renilla luciferase activity, +rapamycin against no rapamycin [7]: 10.4 fold
Substance: FRB-hRL (1-91) (from UniProt P42345 2021-2113; P27652 1-91)

Renilla luciferase activity, +rapamycin against no rapamycin [1]: 81 fold | Renilla luciferase activity, +rapamycin against no rapamycin [8]: 114 fold
Substance: hRL (1-111)-FRB (from UniProt P27652 1-111; P42345 2021-2113)

Renilla luciferase activity, +rapamycin against no rapamycin [9]: 8.6 fold | Renilla luciferase activity, +rapamycin against no rapamycin [10]: 13.5 fold
Substance: hRL (1-91)-FRB (from UniProt P27652 1-91; P42345 2021-2113)
